In PMC3538841:

Target: HA ectodomain of B/Florida/4/2006 (influenza B virus B/Florida/4/2006 (Yamagata lineage))
Test: negative stain EM reconstruction

HA ectodomain of B/Florida/4/2006 (domain or fragment)
stoichiometry N: 3
